Where a chain is given by its changes, count along the chain named. Names and notes keep the numbering of the source.
Target: Rpt2-L437C (S. cerevisiae, UniProt P40327 1-437, L437C)
Test: cross-linking

Rpt2-L437C, sequence (P40327 whole entry L437C): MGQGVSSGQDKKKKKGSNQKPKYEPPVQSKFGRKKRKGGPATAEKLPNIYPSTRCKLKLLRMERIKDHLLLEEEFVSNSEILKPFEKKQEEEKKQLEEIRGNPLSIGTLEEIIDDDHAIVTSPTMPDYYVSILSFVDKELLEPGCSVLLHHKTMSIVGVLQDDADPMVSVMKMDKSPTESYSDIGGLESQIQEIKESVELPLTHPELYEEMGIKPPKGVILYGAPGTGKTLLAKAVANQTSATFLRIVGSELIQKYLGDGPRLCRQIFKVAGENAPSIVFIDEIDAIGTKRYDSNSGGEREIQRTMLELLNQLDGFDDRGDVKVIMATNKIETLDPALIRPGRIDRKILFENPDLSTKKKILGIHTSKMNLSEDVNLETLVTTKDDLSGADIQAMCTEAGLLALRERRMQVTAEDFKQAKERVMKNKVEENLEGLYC

B1: α4-N79C, not HA-tagged (natural protein)
chain: MSGYDRALSIFSPDGHIFQVEYALEAVKRGTCAVGVKGKNCVVLGCERRSTLKLQDTRITPSKVSKIDSHVVLSFSGLCADSRILIEKARVEAQSHRLTLEDPVTVEYLTRYVAGVQQRYTQSGGVRPFGVSTLIAGFDPRDDEPKLYQTEPSGIYSSWSAQTIGRNSKTVREFLEKNYDRKEPPATVEECVKLTVRSLLEVVQTGAKNIEITVVKPDSDIVALSSEEINQYVTQIEQEKQEQQEQDKKKKSNH
B1: binds.

B2: α4-C32A C46A N79C (natural protein)
chain: B1 chain with C32A, C46A
B2: binds.

Reference: paper PMC3210322 (Nature structural & molecular biology, 2011)
